The supplement of paper PMC6757056
± gives the standard deviation of the averaged measurements.

B1: library; a variant is named by its letters at N, in order (parent)
chain: GCUGUCACCGGUGUAUUACCCUAGUGGUCGACCGGUCUGAUGAGUCUNNNNNNAGACGAAACAGC

How the values were obtained:
hypoxanthine [1] = variants of: B1; assay: normalized RNA/DNA level with ligand (relative to sTRSVctl = 100) (log10 (% of sTRSVctl)); ligand: hypoxanthine (xanthine aptamer); higher = less ribozyme self-cleavage, higher mRNA level; details: ligand concentration (+) RNA-Seq: 5 mM, HEK293T, reporter: mCherry (pCS4076), ligand present: yes
In short: (§1)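 Ribozyme switch library plasmids with mCherry reporters (eGFP in certain ligand experiments) went into HEK293T cells at 4 µg per 6-well well. Where ligand was used, it was applied 1 h before transfection, and total RNA was extracted with EDTA 72 h later for reverse transcription, amplification, barcoding and sequencing. RNA level is the RNA-to-DNA read ratio normalized to a spiked-in non-cleaving sequence or to the leading sequences, then scaled and log-transformed. Scaling was ×100 with log10, the leading set comprised 25 sequences, and the cutoff was ≥100 DNA reads.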

hypoxanthine [2] = variants of: B1; assay: normalized RNA/DNA level without ligand (relative to sTRSVctl = 100) (log10 (% of sTRSVctl)); ligand: hypoxanthine (xanthine aptamer); higher = less ribozyme self-cleavage, higher mRNA level; details: HEK293T, reporter: mCherry (pCS4076), ligand present: no
In short: as §1

Variant	normalized RNA/DNA level with ligand (log10) (hypoxanthine [1])	normalized RNA/DNA level without ligand (log10) (hypoxanthine [2])
GUUGCC	1.9665 ± 0.0019	1.9 ± 0.033
GUUGCU	1.97 ± 0.069	1.862 ± 0.0076
GUUGCG	1.87 ± 0.041	1.58 ± 0.072
CUUGGG	1.866 ± 0.013	1.587 ± 0.013
CUUGGU	1.98 ± 0.051	1.95 ± 0.04
CUUGGC	1.95 ± 0.069	1.9 ± 0.089
AUUUCC	1.9621 ± 0.0014	1.878 ± 0.0067
AUUUCU	1.96 ± 0.052	1.917 ± 0.018
AUUUCG	1.901 ± 0.0068	1.568 ± 0.015
AUUUCA	1.87 ± 0.04	1.829 ± 0.017
CUUUAC	1.92 ± 0.073	1.81 ± 0.052
CUUUAA	1.92 ± 0.049	1.78 ± 0.054
AUUUAC	1.927 ± 0.011	1.847 ± 0.0068
AUUUAG	1.85 ± 0.033	1.55 ± 0.053
AUUUAU	1.9 ± 0.039	1.907 ± 0.019
UUUUGC	1.94 ± 0.048	1.889 ± 0.0056
UUUUGU	1.94 ± 0.037	1.842 ± 0.011
UUUUGG	1.898 ± 0.0019	1.738 ± 0.007
UUUGCC	1.92 ± 0.034	1.9514 ± 0.00098

Variant	normalized RNA/DNA level with ligand (log10) (hypoxanthine [1])	normalized RNA/DNA level without ligand (log10) (hypoxanthine [2])
UUUGCG	1.91 ± 0.11	1.778 ± 0.0053
UUUGCU	1.95 ± 0.023	1.95 ± 0.022
UUUGUC	2.0103 ± 0.0014	1.99 ± 0.036
UUUGUA	1.93 ± 0.024	1.87 ± 0.089
UUUGUU	1.952 ± 0.018	1.87 ± 0.027
CUUUUG	1.95 ± 0.042	1.89 ± 0.078
CUUUUC	1.95 ± 0.06	1.92 ± 0.077
CUUUUU	1.95 ± 0.058	1.806 ± 0.012
GUUUGA	1.97 ± 0.0084	1.75 ± 0.032
GUUUGC	1.922 ± 0.016	1.61 ± 0.062
GUUUGU	1.95 ± 0.03	1.885 ± 0.01
AUUUGG	1.81 ± 0.03	1.39 ± 0.12
AUUGGC	1.94 ± 0.03	1.836 ± 0.0094
GUUUUA	1.93 ± 0.025	1.865 ± 0.0019
GUUGGU	1.9283 ± 0.00055	1.78 ± 0.021
GUUGGC	1.9 ± 0.029	1.51 ± 0.025
GUUGGA	1.913 ± 0.0093	1.67 ± 0.042
GUUGUC	1.943 ± 0.0065	1.9 ± 0.052
CUUGUC	2 ± 0.037	1.98 ± 0.04
